For test [1], the target named is cysteate acyl-ACP transferase (SulA), His-tagged (Alistipes finegoldii) (UniProt I3YKQ4).
The target in test [2] is T1, SulA (cysteate acyl-ACP transferase) (Alistipes finegoldii, UniProt I3YKQ4).
T1 construct: gene Alfi_1224
T1 sequence (I3YKQ4 1-423): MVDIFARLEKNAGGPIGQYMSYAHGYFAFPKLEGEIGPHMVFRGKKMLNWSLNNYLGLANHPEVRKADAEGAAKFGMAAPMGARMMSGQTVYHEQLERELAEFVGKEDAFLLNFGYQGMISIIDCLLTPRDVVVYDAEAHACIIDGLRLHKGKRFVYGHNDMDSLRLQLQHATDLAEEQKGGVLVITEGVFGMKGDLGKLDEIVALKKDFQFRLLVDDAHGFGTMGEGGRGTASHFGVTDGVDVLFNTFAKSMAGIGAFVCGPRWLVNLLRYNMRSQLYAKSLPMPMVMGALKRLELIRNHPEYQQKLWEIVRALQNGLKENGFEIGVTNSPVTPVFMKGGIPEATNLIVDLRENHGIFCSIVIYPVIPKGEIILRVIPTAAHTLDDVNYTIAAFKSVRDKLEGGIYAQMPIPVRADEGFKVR
The test is described as follows: X-ray crystal structure […] Å (SeMet-SulA); UV-Vis […] nm internal aldimine. Format: binding. Particulars: covalent, internal aldimine at Lys251.

Test [3] concerns the target T2, SulA (cysteate acyl-ACP transferase) (Alistipes finegoldii, UniProt I3YKQ4, K281A).
T2 construct: gene Alfi_1224
T2 sequence (I3YKQ4 1-423 K281A): T1 sequence (I3YKQ4 1-423)
In words: UV-Vis spectral titration (external aldimine, A430). In kind it is binding. An excerpt:
UV-Vis spectral titration (external aldimine, A430) on SulA (cysteate acyl-ACP transferase) | SulA(K281A) bound cysteate and formed the PLP-cysteate external aldimine normally

The target in test [4] is T1, SulA (cysteate acyl-ACP transferase). The description is as above. In kind it is binding.
Test [5] addresses cysteate acyl-ACP transferase (SulA), His-tagged (Alistipes finegoldii) (UniProt I3YKQ4). The test is described as follows: SEC; calibrated HiLoad 16/600 Superdex 200 column, 200 mM NaCl, 20 mM Tris, pH 8.0; single 85 kDa species against standards. (In gel filtration, larger molecules generally elute earlier.)
Test [6] has the same target. The test is described as follows: AUC; sedimentation velocity, 150 mM NaCl, 1 mM DTT, 20 mM potassium phosphate buffer, pH 7.5, 20 °C, 50,000 rpm, interference optics, c(s) in SEDFIT.
For test [7] the target is unchanged. The test is described as above. The source holds these as a separate data set.

The text below walks through data of paper PMC9304779, “Biochemical characterization of the first step in sulfonolipid biosynthesis in Alistipes finegoldii” (The Journal of Biological Chemistry, 2022).

For “[14C]16:0-acyl carrier protein (from UniProt P0A6A8 1-78) (natural protein)”, the SulA enzyme activity (formation of 3-keto[14C]capnine, TLC) against 0-200 μM [14C]16:0-ACP with 100 mM cysteate; K0.5 of an allosteric sigmoidal fit in test [1] was 26.7 µM. As to `Cc1ncc(COP(=O)(O)O)c(C=O)c1O` [PLP], in test [2], the “X-ray crystal structure 2.9 Å (SeMet-SulA); UV-Vis 390 nm internal aldimine” value is reported as “definitively identifies Lys251 as the PLP attachment site”.

In general, Kd refers to the equilibrium constant for the complex coming apart. Low values mean tighter binding, high ones weaker binding. With `N[C@@H](CS(=O)(=O)O)C(=O)O` [cysteate], the results for the Kd in test [3] and in test [4] were 6.11 ± 1.1 mM and 4.86 ± 0.08 mM, respectively. Broadly, the stoichiometry N is the number of molecules, sites or subunits per partner or assembly. With “cysteate acyl-ACP transferase (SulA), His-tagged (from UniProt I3YKQ4 1-423) (enzyme)”, the stoichiometry N in test [5] came to 2; in test [6], 2; in test [7] it was 4.
